{"source": "patent US20230364000A1", "about": "“COMPOSITIONS COMPRISING COMBINATIONS OF COLLAGEN OR ELASTIN POLYPEPTIDES WITH ACTIVE INGREDIENTS AND METHODS OF USING SAME” (Geltor, Inc., priority 2020, published 2023)", "key": {"facial skin [1]": {"tested_on": "facial skin", "assay": "Corneometer skin hydration, clinical study of Example 3", "format": "in vivo, human", "set-up": "key to Corneometer Mean Percent Improvement From BL mean: NI = No Improvement", "conditions": "0.1% w/w topical formulation; for Corneometer Mean ± SD: n 14, baseline 42.45 ± 10.06", "procedure": "(§1) A clinical study using human subjects to determine the effects of a topical skincare product containing truncated human type 21 collagen (SEQ ID NO: 16) is performed. The research is performed according to U.S. and International standards of Good Clinical Practice (FDA and ICH guidelines) and applicable government regulations.\n(§2) A base formulation (control formulation) made of water, olive oil glycereth-8 esters, glycerin, coconut alkanes, hydroxyethyl acrylate/sodium acryloyldimethyl taurate copolymer, pentylene glycol, disodium EDTA, caprylyl glycol, chlorphenesin, phenoxyethanol is prepared. A formulation containing the truncated human type 21 collagen is prepared by adding sufficient collagen to prepare a topical formulation containing 0.1% w/w collagen.\nThe corneometer CM 820 (Courage+Khazaka, Germany) measures the relative degree of hydration of the skin surface by applying an alternating current to the skin with a closely spaced pair of electrodes and measuring the capacitance. Changes in water content of the skin change the conductance of the capacitive circuit.\nThe corneometer is able to detect slight changes in the hydration level reproducibly with a measurement time of only about one second. The measurement depth is small (approximately 10-20 μm of stratum corneum) which ensures assessment is not influenced by deeper skin layers.\nAll subjects undergo corneometer measurements of their face at baseline, immediately post-initial-application, and at weeks 2, 4, and 8. Measurements will be taken in triplicate and averaged for each time point. Measurement location is recorded on a face map for assessment consistency at each time point.\n(§3) Improvements in skin hydration, firmness, and elasticity were statistically significant."}, "facial skin [2]": {"tested_on": "facial skin", "assay": "SIAscope dermal collagen, clinical study of Example 3", "format": "in vivo, human", "conditions": "0.1% w/w topical formulation, Week 2", "procedure": "as §1, §2\nThe COSMETRICS™ SIAScope (Astron Clinica, Toft, UK) is a non-invasive optical skin imaging instrument using Spectrophotometric Intracutaneous Analysis (SIA), or chromophore mapping. The technique is based on a unique combination of dermatoscopy and contact remittance spectrophotometry. The hardware consists of a hand-held imaging probe attached to a laptop computer. The unit is placed in contact with the skin surface and high-intensity LED's illuminate the skin as discreet wavelengths of 400 to 1000 nm, spanning the visible spectrum and a small range of the near infrared spectrum. A digital image is captured for each wavelength. Three parametric chromophore maps are retrieved up to 2 mm in depth and 11 mm in circumference, one for each of the following parameters: epidermal melanin, dermal hemoglobin and dermal collagen.\nFor the purposes of this study, dermal collagen will be measured on the left or right cheek, per a prepared randomization code, at baseline and at weeks 2, 4, and 8. Assessment location will be recorded on a face map for each subject for consistency of measurements between visits.\nas §3"}, "[3]": {"tested_on": "human primary fibroblasts", "assay": "Fibroblast collagen type I protein secretion (pro-collagen type I C-peptide ELISA)", "format": "cell-based", "conditions": "0.03%; 48 hours; compared with untreated cells or cells treated with retinol; FIG. 1", "procedure": "A series of in vitro experiments were conducted to assess the effects of a truncated human type 21 collagen on human skin fibroblasts and keratinocytes. In a first experiment, human primary fibroblasts were evaluated for collagen type I protein secretion. Fibroblasts were cultured with 0.03% of a polypeptide according to SEQ ID NO: 16 for 48 hours. Culture supernatants were analyzed by Enzyme Linked Immunosorbent Assay (ELISA) for pro-collagen type I C-peptide, which is a readout for total secreted collagen type I protein."}, "fibroblasts": {"tested_on": "fibroblasts", "assay": "RNA sequencing of extracellular matrix gene expression in fibroblasts", "format": "cell-based, human", "conditions": "0.03%, 48 hours", "procedure": "RNA sequencing was performed to analyze global gene expression. After 48 hours of exposure, fibroblasts were incubated with 0.03% of a polypeptide according to SEQ ID NO: 16. These fibroblasts expressed higher levels of several extracellular matrix genes than cells incubated in media alone. […] This response was similar to fibroblasts treated with Vitamin C (FIG. 2A; “D”)."}, "[4]": {"assay": "Oxygen radical absorbance capacity (ORAC) assay, cell-free", "format": "biochemical", "conditions": "0.1% solution", "procedure": "The antioxidant potential of a polypeptide of SEQ ID NO: 16 was assessed using the oxygen free radical absorbance capacity (ORAC) assay. The ORAC assay is a cell-free assay that uses a fluorescent readout to measure a product's antioxidant capacity. Data is reported in Trolox (Vitamin E) equivalents.\nA polypeptide of SEQ ID NO: 5 was also evaluated in the ORAC assay.\nAn oxygen radical absorbance capacity (ORAC) assay was performed to analyze the anti-oxidative capacity of a polypeptide according to SEQ ID NO: 52. The ORAC assay is a cell-free assay that uses a fluorescent readout to measure anti-oxidative capacity. Data is reported in Trolox (Vitamin E) equivalents (TEs)."}, "facial skin [5]": {"tested_on": "facial skin", "assay": "Facial skin redness, clinical study of Example 5", "format": "in vivo, human", "conditions": "topical facial serum 0.1%, n=15, FIG. 8", "text": "In a clinical study (n=15 subjects), subjects used a topical facial serum containing 0.1% of a polypeptide of SEQ ID NO: 16 for 8 weeks, after using a protein-free base facial serum for a 1-week washout period."}, "[6]": {"tested_on": "Human full-thickness skin equivalents (MatTek Epiderm FT co-culture tissue models)", "assay": "Type I collagen production in human full-thickness skin equivalents (pro-collagen type I C-peptide ELISA)", "format": "cell-based", "conditions": "polypeptide 0.1% w/w, FIG. 18", "procedure": "Human full-thickness skin equivalents (MatTek Epiderm FT co-culture tissue models) which contain keratinocytes and fibroblasts were treated with a 0.1% w/w truncated human type 21 collagen polypeptide (having an amino acid sequence of SEQ ID NO: 16) (“C21”; FIG. […] Culture medium was changed every 2 days. On day 4, supernatant was collected and analyzed by enzyme-linked immunosorbent assay (ELISA) for pro-collagen type I C-peptide, which is a readout for total secreted collagen type I protein."}, "[7]": {"tested_on": "Human full-thickness skin equivalents (MatTek Epiderm FT co-culture tissue models)", "assay": "Elastin production in human full-thickness skin equivalents (ELISA)", "format": "cell-based", "conditions": "polypeptide 0.1% w/w, retinol (10, unit not given), ascorbic acid 2% w/w, FIG. 20", "text": "The combination of the truncated human type 21 collagen polypeptide with retinol increased elastin production by 45% relative to untreated control. This appeared to be a synergistic effect as treatment with truncated human type 21 collagen polypeptide alone increased elastin production by 20% and treatment with retinol alone increased elastin production by 17%. The combination of the truncated human type 21 collagen polypeptide with ascorbic acid increased elastin production by 33% relative to untreated control. This appeared to be a synergistic effect as treatment with truncated human type 21 collagen polypeptide alone increased elastin production by 20% and treatment with ascorbic acid alone increased elastin production by 5%."}}}
{"molecule": "SEQ ID NO: 16: truncated human collagen type 21 alpha 1 without the DsbA secretion tag, recombinantly expressed in E. coli (protein) AGFPGLPGPAGEPGRHGKDGLMGSPGFKGEAGSPGAPGQDGTRGEPGIPGFPGNRGLMGQKGEIGPPGQQGKKGAPGMPGLMGSNGSPGQPGTPGSKGSKGEPGIQGMPGASGLKGEPGATGSPGEPGYMGLPGIQGKKGDKGNQGEKGIQGQKGENGRQGIPGQQGIQGHHGAKGERGEKGEPGVR", "values": [{"measurement": "Corneometer Mean Percent Improvement From BL mean", "setting": "facial skin [1]; Immediate", "value": 36.69, "unit": "%"}, {"measurement": "Corneometer Percent of Subjects Showing Improvement From BL", "setting": "facial skin [1]; Immediate", "value": 100, "unit": "%"}, {"measurement": "Corneometer Mean ± SD", "setting": "facial skin [1]; Immediate, P-value <0.001*", "value": "57.22 ± 12.47"}, {"measurement": "Corneometer Mean Percent Improvement From BL mean", "setting": "facial skin [1]; Week 2", "value": "NI"}, {"measurement": "Corneometer Percent of Subjects Showing Improvement From BL", "setting": "facial skin [1]; Week 2", "value": 14.3, "unit": "%"}, {"measurement": "Corneometer Mean ± SD", "setting": "facial skin [1]; Week 2, P-value 0.001** (significant worsening)", "value": "35.71 ± 10.77"}, {"measurement": "SIAscope Collagen Mean Percent Improvement From BL mean", "setting": "facial skin [2]", "value": 6.72, "unit": "%"}, {"measurement": "SIAscope Collagen Percent of Subjects Showing Improvement From BL", "setting": "facial skin [2]", "value": 78.6, "unit": "%"}, {"measurement": "SIAscope Collagen Mean ± SD", "setting": "facial skin [2]; n 14, baseline 238.95 ± 11.60, P-value 0.004*", "value": "254.89 ± 19.35"}, {"measurement": "secreted collagen type I (pro-collagen type I C-peptide)", "setting": "[3]", "value": "higher levels"}, {"measurement": "elastin gene (ELN) expression", "setting": "fibroblasts; relative to untreated cells and various marine collagens, FIG. 2B", "value": "upregulated"}, {"measurement": "collagen type I gene (COL1A) expression", "setting": "fibroblasts; relative to untreated cells or retinol, similar to Vitamin C, FIG. 2A", "value": "upregulated"}, {"measurement": "fibronectin gene (FN1) expression", "setting": "fibroblasts; relative to untreated cells, retinol and Vitamin C, FIG. 2C", "value": "upregulated"}, {"measurement": "antioxidant properties, Trolox (Vitamin E) equivalents", "setting": "[4]", "value": 190, "unit": "μM Trolox"}, {"measurement": "skin redness", "setting": "facial skin [5]; 4 weeks vs baseline", "value": "decrease"}, {"measurement": "skin redness", "setting": "facial skin [5]; 8 weeks vs baseline", "value": "decrease"}, {"measurement": "increase of type I collagen production relative to the untreated control", "setting": "[6]; day 4 supernatant, hyaluronic acid 0.1% w/w (low molecular weight, 15-40 kDa)", "value": 64, "unit": "%"}, {"measurement": "production of type I collagen as compared to untreated cells", "setting": "[6]; each agent alone, day 4, retinol (10, unit not given), ascorbic acid 2% w/w, hyaluronic acid 0.1% w/w", "value": "increased production"}, {"measurement": "increase of elastin production relative to untreated control", "setting": "[7]; day 2 supernatant", "value": 20, "unit": "%"}, {"measurement": "production of elastin as compared to untreated cells", "setting": "[7]; each agent alone, day 2, hyaluronic acid 0.1% w/w", "value": "increased production"}]}
